Laboratory results taken from patent publication US20140120095A1 (Boehringer Ingelheim, published 2014).
Read-outs that look alike come from different tables or passages of the source.

T1: recombinant mouse VEGF164 (R&D Systems) (mouse, UniProt Q00731-2 27-190)
T1 construct: also called rmVEGF164; mVEGF164
T1 sequence (looked up): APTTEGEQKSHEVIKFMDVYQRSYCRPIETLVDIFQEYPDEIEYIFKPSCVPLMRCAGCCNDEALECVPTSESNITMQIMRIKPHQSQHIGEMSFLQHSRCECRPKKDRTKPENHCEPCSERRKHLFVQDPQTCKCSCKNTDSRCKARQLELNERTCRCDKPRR

T2: VEGFB (UniProt P49765-2 22-188, limits assumed)
T2 sequence (looked up): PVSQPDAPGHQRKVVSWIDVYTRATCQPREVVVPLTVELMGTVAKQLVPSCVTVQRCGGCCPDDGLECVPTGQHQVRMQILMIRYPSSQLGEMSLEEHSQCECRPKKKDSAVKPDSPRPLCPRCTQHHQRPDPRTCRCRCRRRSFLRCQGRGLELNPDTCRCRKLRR

T3: VEGFC (UniProt P49767 103-227, limits assumed)
T3 sequence (looked up): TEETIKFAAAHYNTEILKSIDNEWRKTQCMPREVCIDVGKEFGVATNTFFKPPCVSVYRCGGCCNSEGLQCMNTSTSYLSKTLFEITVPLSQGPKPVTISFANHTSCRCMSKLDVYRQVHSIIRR

T4: VEGFD (UniProt O43915 93-201, limits assumed)
T4 sequence (looked up): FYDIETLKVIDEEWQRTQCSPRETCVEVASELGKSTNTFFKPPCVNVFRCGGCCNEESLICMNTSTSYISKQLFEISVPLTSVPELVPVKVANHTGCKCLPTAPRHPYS

T5: PIGF (UniProt P49763-2 21-149, limits assumed)
T5 construct: also called placenta growth factor
T5 sequence (looked up): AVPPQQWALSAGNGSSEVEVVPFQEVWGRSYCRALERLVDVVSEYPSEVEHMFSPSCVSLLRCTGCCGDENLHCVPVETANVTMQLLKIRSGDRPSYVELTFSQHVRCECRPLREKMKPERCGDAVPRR

B1: VEGFBII23B04 (VHH, not shown: small tags and cut ends)
VHH: EVQLVESGGGLVQTGDSLRLSCEVSGRTFSSYSMGWFRQAQGKEREFVVAISKGGYKYDSVSLEGRFTISKDNAKNTVYLQINSLKPEDTAVYYCASSRAYGSSRLRLADTYEYWGQGTQVTVSS
notes: also called VEGFBII23B4; VEGFBII23B04 (wt)
B2: recombinant human VEGF121 (R&D Systems) (ligand, UniProt P15692-9 27-147, looked up)
chain: APMAEGGGQNHHEVVKFMDVYQRSYCHPIETLVDIFQEYPDEIEYIFKPSCVPLMRCGGCCNDEGLECVPTEESNITMQIMRIKPHQGQHIGEMSFLQHNKCECRPKKDRARQEKCDKPRR
notes: also called rhVEGF121
B3: VEGFBII23B04 (VHH, not shown: small tags and cut ends)
VHH: B1 VHH
notes: also called VEGFBII23B4
B4: VEGFBII23A06 (VHH, not shown: small tags and cut ends)
VHH: EVQLVESGGGLVQPGDSLKLSCAFSGRTFSSYSMGWFRQAQGKEREFVVAISSGGFIYDAVSLEGRFTISRDNTKNTVYLQTPSLKPEDTAVYYCAASRAYGSSRLRLADTYDYWGQGTQVTVSS
B5: VEGFBII23B04 (VHH)
VHH: B1 VHH
notes: also called VEGFBII23B4
B6: VEGFBII23A06 (VHH)
VHH: B4 VHH

How the values were obtained:
[1] = biological target: T6, recombinant human VEGF165 (human, UniProt P15692-4 27-191, biotinylated in the competition assays); test: AlphaScreen, hVEGF165/hVEGFR2-Fc competition, +5 uM HSA
T6 construct: Bought protein; also called hVEGF165; rhVEGF165
Procedure: (§1) These 2 competition assays are also performed after preincubation of the VHHs with 5 μM human serum albumin.

[2] = biological target: T7, VEGF (used to stimulate HUVEC cells) (UniProt P15692-4 27-191, limits assumed); test: cell-based or functional assay
[3] = biological target: T7, VEGF (used to stimulate HUVEC cells); test: cell-based or functional assay; remark: listed apart in the source
[4] = biological target: T6, recombinant human VEGF165; test: AlphaScreen, hVEGF165/hVEGFR1-Fc competition, -HSA
[5] = biological target: T6, recombinant human VEGF165; test: AlphaScreen, hVEGF165/hVEGFR2-Fc competition; design: % inhibition: concentration or dose not given beside the values
Target sequence in this assay (P15692 other isoform, or with tags, fused parts or gaps): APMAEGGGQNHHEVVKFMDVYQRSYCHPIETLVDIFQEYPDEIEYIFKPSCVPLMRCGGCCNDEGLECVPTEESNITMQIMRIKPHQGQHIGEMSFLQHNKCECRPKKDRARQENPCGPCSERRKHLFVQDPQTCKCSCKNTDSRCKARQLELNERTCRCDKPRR

[6] = biological target: T7, VEGF (used to stimulate HUVEC cells); test: cell-based or functional assay; remark: listed apart in the source
[7] = biological target: T6, recombinant human VEGF165; test: AlphaScreen, hVEGF165/hVEGFR1-Fc competition, -HSA; remark: listed apart in the source
[8] = biological target: T6, recombinant human VEGF165; test: AlphaScreen, hVEGF165/hVEGFR2-Fc competition, +5 uM HSA; remark: listed apart in the source
Procedure: as §1

[9] = biological target: T6, recombinant human VEGF165; test: AlphaScreen, hVEGF165/hVEGFR2-Fc competition, -HSA
[10] = biological target: T6, recombinant human VEGF165; test: AlphaScreen, hVEGF165/hVEGFR2-Fc competition
[11] = biological target: T6, recombinant human VEGF165; test: SPR Biacore, VEGF165
[12] = biological target: T6, recombinant human VEGF165; test: AlphaScreen, hVEGF165/hVEGFR2-Fc competition, -HSA; remark: listed apart in the source
[13] = biological target: T7, VEGF (used to stimulate HUVEC cells); test: cell-based or functional assay; remark: listed apart in the source
[14] = biological target: T8, human VEGFR2-Fc chimera (R&D Systems) (human, UniProt P35968 20-764); test: binding ELISA on coated recombinant human VEGF121 (Example 12.7), positive control, OD 450 nm
T8 construct: also called hVEGFR2-Fc; VEGFR2-huFc
Procedure: (§2) Binding to recombinant human VEGF121 is assessed via a solid phase binding ELISA. […] Wells are blocked with a casein solution (1% in PBS).

[15] = biological target: T9, recombinant human VEGF165 (human, UniProt P15692-4 27-191, biotinylated in the competition assays); test: competition ELISA, biotinylated VEGF165 to coated VEGFR1-Fc
T9 construct: also called hVEGF165; rhVEGF165

[16] = biological target: T9, recombinant human VEGF165; test: binding ELISA, coated rhVEGF165
[17] = biological target: T9, recombinant human VEGF165; test: SPR (Biacore), periplasmic extract over immobilised VEGF165, two phase decay fit
Procedure: Dissociation rates of receptor-blocking VHHs are analyzed on Biacore (Biacore T100 instrument, GE Healthcare). HBS-EP+buffer is used as running buffer and experiments are performed at 25° C. […] After immobilization, surfaces are deactivated with 10 min injection of 1M ethanolamine pH8.5. […] Periplasmic extracts of VHHs are injected at a 10-fold dilution in running buffer for 2 min at 45 μl/min and allowed to dissociate for 10 or 15 min. Between different samples, the surfaces are regenerated with regeneration buffer. Data are double referenced by subtraction of the curves on the reference channel and of a blank running buffer injection. The dissociation phase of the processed curves is evaluated by fitting a two phase decay model in the Biacore T100 Evaluation software v2.0.1.

[18] = biological target: T9, recombinant human VEGF165; test: competition ELISA, biotinylated VEGF165 to coated VEGFR2-Fc
[19] = biological target: T9, recombinant human VEGF165; test: competition AlphaScreen, bio-VEGF165 and VEGFR2-Fc
Procedure: (§3) Finally, streptavidin donor beads (20 μg/ml) are added and after 1 hour of incubation in the dark, fluorescence is measured on the Envision microplate reader.

[20] = biological target: T1, recombinant mouse VEGF164 (R&D Systems); test: binding ELISA, coated rmVEGF164
Procedure: Cross-reactivity to mouse VEGF164 is determined using a binding ELISA. […] Wells are blocked with a casein solution (1% in PBS). […] A mouse VEGF164 reactive mAb is included as positive control.

[21] = biological target: B2; test: binding ELISA, coated recombinant human VEGF121
Procedure: as §2

[22] = biological target: T9, recombinant human VEGF165; test: competition AlphaScreen, bio-VEGF165 and VEGFR1-Fc
Procedure: as §3

[23] = biological target: T9, recombinant human VEGF165; test: SPR (Biacore), immobilised VEGF165, Two State Reaction model
Procedure: Samples are injected for 2 min and allowed to dissociate up to 20 min at a flow rate of 45 μl/min. In between sample injections, the chip surface is regenerated with 100 mM HCl. HBS-EP+(Hepes buffer pH7.4+EDTA) is used as running buffer. Binding curves are fitted using a Two State Reaction model by Biacore T100 Evaluation Software v2.0.1.
^{(a)}Heterogeneous binding curve resulting in no 1:1 fit, curves are fitted using a Two State Reaction model by Biacore T100 Evaluation Software v2.0.1

VEGFB = biological target: T2, VEGFB; test: solid phase binding ELISA, 500 nM-32 pM VHH
Procedure: (§4) Binding to VEGFB, VEGFC, VEGFD and PIGF is assessed via a solid phase binding ELISA. […] Wells are blocked with a casein solution (1% in PBS). […] As positive controls serial dilutions of the appropriate receptors are taken along and detected with horseradish peroxidase (HRP)-conjugated goat anti-human IgG, Fc specific antibody (Jackson Immuno Research Laboratories Inc., West Grove, Pa., USA) and a subsequent enzymatic reaction in the presence of the substrate TMB (3,3′,5,5′-tetramentylbenzidine) (Pierce, Rockford, Ill., USA).

VEGFC = biological target: T3, VEGFC; test: solid phase binding ELISA, 500 nM-32 pM VHH
Procedure: as §4

VEGFD = biological target: T4, VEGFD; test: solid phase binding ELISA, 500 nM-32 pM VHH
Procedure: as §4

PIGF = biological target: T5, PIGF; test: solid phase binding ELISA, 500 nM-32 pM VHH
Procedure: as §4

T8 sequence (P35968 20-764, change not shown): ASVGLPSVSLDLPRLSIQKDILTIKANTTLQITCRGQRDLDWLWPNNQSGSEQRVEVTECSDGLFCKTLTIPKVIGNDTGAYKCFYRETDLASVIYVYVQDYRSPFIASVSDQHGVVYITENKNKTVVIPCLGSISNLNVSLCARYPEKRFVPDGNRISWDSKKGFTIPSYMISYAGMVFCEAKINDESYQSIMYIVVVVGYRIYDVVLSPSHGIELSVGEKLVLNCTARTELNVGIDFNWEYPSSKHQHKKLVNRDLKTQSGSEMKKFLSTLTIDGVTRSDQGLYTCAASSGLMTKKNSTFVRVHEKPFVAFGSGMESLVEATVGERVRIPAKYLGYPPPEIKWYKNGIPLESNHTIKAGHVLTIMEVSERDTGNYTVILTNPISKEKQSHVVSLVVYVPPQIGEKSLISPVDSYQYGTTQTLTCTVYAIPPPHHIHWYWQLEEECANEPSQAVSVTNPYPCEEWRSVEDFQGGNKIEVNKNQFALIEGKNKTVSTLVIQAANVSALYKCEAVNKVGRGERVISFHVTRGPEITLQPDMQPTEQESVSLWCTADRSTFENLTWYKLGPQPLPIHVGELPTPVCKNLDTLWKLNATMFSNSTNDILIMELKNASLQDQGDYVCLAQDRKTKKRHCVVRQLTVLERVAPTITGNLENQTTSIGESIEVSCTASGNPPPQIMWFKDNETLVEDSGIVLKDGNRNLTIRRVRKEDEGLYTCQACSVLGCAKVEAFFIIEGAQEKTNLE

B1
% inh [1]: 100% | IC50 [1]: 0.2 nM | IC50, VEGF HUVEC proliferation assay [2]: 0.36 nM | IC50, VEGF HUVEC Erk phosphorylation assay [3]: 0.37 nM | % inh [4]: 48% | IC50 [4]: 0.45 nM | % inhibition [5]: 100% | IC50 [5]: 0.169 nM | % inhibition, VEGF HUVEC proliferation assay [6]: 92% | IC50, VEGF HUVEC proliferation assay [6]: 0.68 nM | % inh [7]: 44% | IC50 [7]: 0.43 nM | % inh [8]: 100% | IC50 [8]: 0.3 nM | % inh [9]: 100% | IC50 [9]: 0.19 nM | % inhibition [10]: 100% | IC50 [10]: 0.152 nM | Kd [11]: 0.56 nM | % inh [12]: 100% | IC50 [12]: 0.22 nM | % inhibition, VEGF HUVEC proliferation assay, -HSA [13]: 87% | IC50, VEGF HUVEC proliferation assay, +HSA [13]: 0.69 nM | IC50, VEGF HUVEC proliferation assay, -HSA [13]: 0.78 nM

B2
binding result [14]: binds

B3
IC50 [15]: 0.5 nM | EC50 [16]: 0.297 nM | kd (fast) [17]: 0.0088 | kd (slow) [17]: 4e-05 | IC50 [18]: 2.1 nM | IC50 [19]: 0.16 nM | binding result [20]: no binding (tested: dilution series 500 nM-32 pM) | EC50 [21]: 0.51 nM | IC50 [22]: 0.9 nM | Kd [23]: 0.7 nM

B4
IC50 [15]: 0.9 nM | EC50 [16]: 0.531 nM | kd (fast) [17]: 0.017 | kd (slow) [17]: 3.7e-05 | IC50 [18]: 3 nM | IC50 [19]: 0.25 nM | binding result [20]: no binding (tested: dilution series 500 nM-32 pM) | EC50 [21]: 0.928 nM | IC50 [22]: 0.4 nM | Kd [23]: 0.7 nM

B5
binding result (VEGFB): no binding (tested: 500 nM) | binding result (VEGFC): no binding (tested: 500 nM) | binding result (VEGFD): no binding (tested: 500 nM) | binding result (PIGF): no binding (tested: 500 nM)

B6
binding result (VEGFB): no binding (tested: 500 nM) | binding result (VEGFC): no binding (tested: 500 nM) | binding result (VEGFD): no binding (tested: 500 nM) | binding result (PIGF): no binding (tested: 500 nM)
